Measured values reported in paper PMC7056577.
Several values for one entry are separate records, joined by “and”; a condition that tells them apart may be missing. Equal values may be shown once.

Target: T1, Arabidopsis CRY1 expressed in transgenic Arabidopsis (GFP-CRY1 and Myc-CRY1) (Arabidopsis), Q43125
T1 chain: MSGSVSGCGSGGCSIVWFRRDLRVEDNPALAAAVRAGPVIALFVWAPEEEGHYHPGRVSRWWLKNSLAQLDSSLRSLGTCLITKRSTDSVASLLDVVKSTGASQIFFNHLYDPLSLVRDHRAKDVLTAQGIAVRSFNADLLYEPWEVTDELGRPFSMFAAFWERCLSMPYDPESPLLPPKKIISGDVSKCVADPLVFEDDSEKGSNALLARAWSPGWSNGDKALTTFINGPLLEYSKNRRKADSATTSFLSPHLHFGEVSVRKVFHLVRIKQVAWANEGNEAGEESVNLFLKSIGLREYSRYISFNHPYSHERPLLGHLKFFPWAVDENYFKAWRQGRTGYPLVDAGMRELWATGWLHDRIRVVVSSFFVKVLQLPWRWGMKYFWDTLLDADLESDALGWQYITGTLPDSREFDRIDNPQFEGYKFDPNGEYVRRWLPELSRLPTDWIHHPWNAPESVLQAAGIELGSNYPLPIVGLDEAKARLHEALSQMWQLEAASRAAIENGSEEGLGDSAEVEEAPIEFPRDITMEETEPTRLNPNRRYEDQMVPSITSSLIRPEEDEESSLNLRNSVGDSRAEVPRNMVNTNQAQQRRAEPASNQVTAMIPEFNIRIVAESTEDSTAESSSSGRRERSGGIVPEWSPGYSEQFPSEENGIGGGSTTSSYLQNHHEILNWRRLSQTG
Experiment: co-IP
Conditions: remark: other sources report otherwise

- 60F50 (fluence rate of blue light for 50% photooligomerization after 60 seconds): 14.9 μmolm^−2s^−1 and 16.2 μmolm^−2s^−1
B1: Arabidopsis CRY1 expressed in transgenic Arabidopsis (GFP-CRY1 and Myc-CRY1), Q43125 1-681 (natural protein)
chain: T1 chain
